Here are results for 3 molecules from paper PMC9411592, “Specificity of TGF-β1 signal designated by LRRC33 and integrin αVβ8” (Nature Communications, 2022).

For test [1], the target named is T1, L-TGF-β1 C4S/R249A (the 'WT' of the SPR assay) (human).
T1 construct: latent TGF-β1, human, with C4S and R249A; numbers count on: the protein without its signal peptide; The methods describe L-TGF-β1 alone as N-terminally His6-tagged, made in HEK293S GnTI- cells, tag cleaved with PreScission; also called WT (C4S/R249A) L-TGF-β1; mutant L-TGF-β1 (C4S/R249A); source: purified
T1 sequence (P01137 other isoform, or with tags, fused parts or gaps R249A R249A): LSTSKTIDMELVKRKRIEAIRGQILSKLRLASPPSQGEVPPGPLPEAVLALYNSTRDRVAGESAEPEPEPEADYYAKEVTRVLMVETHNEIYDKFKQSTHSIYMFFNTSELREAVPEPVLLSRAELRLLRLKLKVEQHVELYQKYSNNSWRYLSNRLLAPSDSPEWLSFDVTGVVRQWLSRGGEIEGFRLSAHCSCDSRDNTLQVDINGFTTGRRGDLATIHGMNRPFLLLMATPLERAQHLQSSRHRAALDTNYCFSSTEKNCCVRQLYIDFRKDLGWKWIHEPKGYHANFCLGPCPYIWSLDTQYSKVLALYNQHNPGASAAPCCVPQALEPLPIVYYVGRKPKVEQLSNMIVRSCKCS
The experiment in a line: SPR; Biacore T200, 25 °C; L-TGF-β1 (C4S/R249A, or + RGEGATG) immobilised on a CM5 chip by amine coupling; integrin headpieces injected at 20 μl/min in 20 mM HEPES pH 7.5, 150 mM NaCl, 1 mM MgCl2, 1 mM CaCl2; 1:1 Langmuir model. The note with it: both partners purified.

Test [2] concerns the target L-TGF-β1/LRRC33 complex (L-TGF-β1 dimer disulfide-linked to one LRRC33 ectodomain) (human, N-linked glycosylation | N-linked glycosylation). Description: cryo-EM structure; purified αVβ8 headpiece and purified L-TGF-β1/LRRC33 mixed on ice at a molar ratio of 2.2:1 with 1 mM MnCl2 and 0.2 mM CaCl2, then SEC; 2:2:1 map at 5.19 Å, masked 1:2 αVβ8/L-TGF-β1 at 3.24 Å. The note with it: both partners purified.

Substitutions are numbered along the chain they refer to.

L-TGF-β1/LRRC33 complex (L-TGF-β1 dimer disulfide-linked to one LRRC33 ectodomain) (human, N-linked glycosylation | N-linked glycosylation), sequence (chain, as listed by the source, chain 1 of 2): as the sequence (P01137 other isoform, or with tags, fused parts or gaps R249A R249A) above, with S4C, A249R counted along it
L-TGF-β1/LRRC33 complex (L-TGF-β1 dimer disulfide-linked to one LRRC33 ectodomain) (human, N-linked glycosylation | N-linked glycosylation), sequence (chain, as listed by the source, chain 2 of 2): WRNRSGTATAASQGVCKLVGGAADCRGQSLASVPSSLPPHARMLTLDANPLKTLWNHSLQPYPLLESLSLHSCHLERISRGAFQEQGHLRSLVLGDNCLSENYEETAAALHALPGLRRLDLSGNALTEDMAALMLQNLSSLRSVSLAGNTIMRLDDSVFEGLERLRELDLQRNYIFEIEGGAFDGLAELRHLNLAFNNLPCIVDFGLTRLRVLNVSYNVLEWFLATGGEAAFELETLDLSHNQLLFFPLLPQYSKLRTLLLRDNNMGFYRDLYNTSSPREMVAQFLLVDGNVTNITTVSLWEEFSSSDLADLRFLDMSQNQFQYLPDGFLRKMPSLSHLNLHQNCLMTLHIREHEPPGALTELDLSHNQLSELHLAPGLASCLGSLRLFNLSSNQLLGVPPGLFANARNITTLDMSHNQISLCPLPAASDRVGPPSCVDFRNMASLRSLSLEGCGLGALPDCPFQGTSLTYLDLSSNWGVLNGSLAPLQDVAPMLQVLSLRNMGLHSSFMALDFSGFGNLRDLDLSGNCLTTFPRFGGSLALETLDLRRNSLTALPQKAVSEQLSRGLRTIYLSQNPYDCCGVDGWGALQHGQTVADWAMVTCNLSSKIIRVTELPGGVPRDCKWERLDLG

B1: integrin αVβ8 headpiece (αV residues 1-594, β8 residues 1-456) (complex)
chain 1: FNLDVDSPAEYSGPEGSYFGFAVDFFVPSASSRMFLLVGAPKANTTQPGIVEGGQVLKCDWSSTRRCQPIEFDATGNRDYAKDDPLEFKSHQWFGASVRSKQDKILACAPLYHWRTEMKQEREPVGTCFLQDGTKTVEYAPCRSQDIDADGQGFCQGGFSIDFTKADRVLLGGPGSFYWQGQLISDQVAEIVSKYDPNVYSIKYNNQLATRTAQAIFDDSYLGYSVAVGDFNGDGIDDFVSGVPRAARTLGMVYIYDGKNMSSLYNFTGEQMAAYFGFSVAATDINGDDYADVFIGAPLFMDRGSDGKLQEVGQVSVSLQRASGDFQTTKLNGFEVFARFGSAIAPLGDLDQDGFNDIAIAAPYGGEDKKGIVYIFNGRSTGLNAVPSQILEGQWAARSGCPPSFGYSMKGATDIDKNGYPDLIVGAFGVDRAILYRARPVITVNAGLEVYPSILNQDNKTCSLPGTALKVSCFNVRFCLKADGKGVLPRKLNFQVELLLDKLKQKGAIRRALFLYSRSPSHSKNMTISRGGLMQCEELIAYLRDESEFRDKLTPITIFMEYRLDYRTAADTTGLQPILNQFTPANISRQAHILLD
chain 2: EDNRCASSNAASCARCLALGPECGWCVQEDFISGGSRSERCDIVSNLISKGCSVDSIEYPSVHVIIPTENEINTQVTPGEVSIQLRPGAEANFMLKVHPLKKYPVDLYYLVDVSASMHNNIEKLNSVGNDLSRKMAFFSRDFRLGFGSYVDKTVSPYISIHPERIHNQCSDYNLDCMPPHGYIHVLSLTENITEFEKAVHRQKISGNIDTPEGGFDAMLQAAVCESHIGWRKEAKRLLLVMTDQTSHLALDSKLAGIVCPNDGNCHLKNNVYVKSTTMEHPSLGQLSEKLIDNNINVIFAVQGKQFHWYKDLLPLLPGTIAGEIESKAANLNNLVVEAYQKLISEVKVQVENQVQGIYFNITAICPDGSRKPGMEGCRNVTSNDEVLFNVTVTMKKCDVTGGKNYAIIKPIGFNETAKIHIHRNCSCQCEDNRGPKGKCVDETFLDSKCFQCDENK
In general, Kd refers to the equilibrium constant for the complex coming apart. On to B1, for which, in test [1], the Kd is 0.111 µM. In test [2], the “stoichiometry N” value is 2 αVβ8 per L-TGF-β1 dimer/LRRC33 complex.

B2: integrin αVβ6-8DLL headpiece (the disulfide-linked loop of β6 substituted by that of β8) (complex)
chain 1: B1 chain 1
chain 2: HVQGGCALGGAETCEDCLLIGPQCAWCAQENFTHPSGVGERCDTPANLLAKGCQLNFIENPVSQVEILKNKPLSVGRQKNSSDIVQIAPQSLILKLRPGGAQTLQVHVRQTEDYPVDLYYLMDLSASMDDDLNTIKELGSRLSKEMSKLTSNFRLGFGSFVEKPVSPFVKTTPEEIANPCSDYNLDCLPTFGFKHILPLTNDAERFNEIVKNQKISANIDTPEGGFDAIMQAAVCKEKIGWRNDSLHLLVFVSDADSHFGMDSKLAGIVCPNDGLCHLDSKNEYSMSTVLEYPTIGQLIDKLVQNNVLLIFAVTQEQVHLYENYAKLIPGATVGLLQKDSGNILQLIISAYEELRSEVELEVLGDTEGLNLSFTAICNNGTLFQHQKKCSHMKVGDTASFSVTVNIPHCERRSRHIIIKPVGLGDALELLVSPECNCDCQKEVEVNSSKCHHGNGSFQCGVCACHPGHMGPRCE
Take B2: in test [1], the Kd turned out to be 0.0469 µM.

B3: integrin αVβ6 headpiece (αV residues 1-594, β6 residues 1-474) (complex)
chain 1: B1 chain 1
chain 2: B2 chain 2 with D182S, Y183I, N184P, L185Y, D186F
For B3, in test [1], the Kd was 0.00218 µM.
